This note sets out measurements from publication PMC4875570.

Assay [1] concerns the target severe acute respiratory syndrome (SARS) coronavirus papain-like protease (PLpro), wild type (SARS coronavirus) (UniProt P0C6X7).
For assay [2] the target is unchanged. Nature of the assay: inhibition of AMC substrate cleavage.

“And” between values parts separate entries of the source, which are not always exact repeats. Identical values can stand only once.

For the substance ISG15-AMC, in assay [1], the KM of ISG15-AMC cleavage was found to be 15.9 µM and the apparent kcat/KM of ISG15-AMC cleavage (Michaelis-Menten kinetics) came to 598000 M⁻¹ s⁻¹. Take monoUb-AMC (from UniProt P0CG48 1-76): in assay [1], the KM of monoUb-AMC cleavage turned out to be 15.1 µM and the apparent kcat/KM of monoUb-AMC cleavage (Michaelis-Menten kinetics) was 33300 M⁻¹ s⁻¹. As to “triazole-linked diUb^Lys48-AMC (from UniProt P0CG48) (complex)”, in assay [1], the KM of triazole-linked diUb^Lys48-AMC cleavage was determined as 33.4 µM.

Turning to “Lys48-linked tri-ubiquitin (triUb^Lys48), free chain (from UniProt P0CG48 1-76) (complex)”, in assay [2], the Ki was 10.6 µM and 10.1 µM and 4.08 µM.
